Experimental data as given in patent US20150266962A1.

Target: human IL-13Rα2 on the surface of human tumour cell lines (human) (UniProt Q14627)
Assay: cell-based or functional assay

Sequence of human IL-13Rα2 on the surface of human tumour cell lines (human) (Q14627 27-380): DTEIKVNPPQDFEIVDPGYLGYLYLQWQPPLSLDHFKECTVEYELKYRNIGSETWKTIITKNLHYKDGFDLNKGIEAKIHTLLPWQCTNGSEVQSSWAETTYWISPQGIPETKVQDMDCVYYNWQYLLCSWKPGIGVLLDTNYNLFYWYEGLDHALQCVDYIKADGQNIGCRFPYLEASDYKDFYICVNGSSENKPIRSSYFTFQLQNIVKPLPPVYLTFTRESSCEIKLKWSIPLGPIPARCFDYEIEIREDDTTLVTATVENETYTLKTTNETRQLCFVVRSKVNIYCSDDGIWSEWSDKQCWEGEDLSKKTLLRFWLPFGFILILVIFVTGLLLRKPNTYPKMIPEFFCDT

Row | % internalization, 15 min, A375 | % internalization, 15 min, H460R | % internalization, 15 min, Hs766T | % internalization, 15 min, PC3MM2 | % internalization, 4 hours, A375 | % internalization, 4 hours, H460R | % internalization, 4 hours, Hs766T | % internalization, 4 hours, PC3MM2 | Substance | IC50 (ng Ab/mL), in vitro cytotoxicity, A375 | IC50 (ng Ab/mL), in vitro cytotoxicity, PC3MM2
1 | 49.3% | 57.5% | 60.8% | 60.2% | 68.2% | 49.2% | 73.6% | 49.7% | ab27414 (Abcam), monoclonal mouse IgG1 anti-IL-13Rα2 (antibody) |  | 
2 |  |  |  |  |  |  |  |  | hIgG8.8-mc-3377 non-binding control ADC (antibody) | > 400000 ng Ab/mL | > 400000 ng Ab/mL
3 |  |  |  |  |  |  |  |  | hIgG8.8-vc-0101 non-binding control ADC (antibody) | > 400000 ng Ab/mL | > 400000 ng Ab/mL
